Assay results published in patent EP2308896A1 (Sanofi-Aventis, dated 2011).

Molecular target: hRAGE (human, UniProt Q15109 23-342, limits assumed)
Test: competition ELISA, hRAGE-S100B interaction

Chain of hRAGE (Q15109 23-342 limits assumed): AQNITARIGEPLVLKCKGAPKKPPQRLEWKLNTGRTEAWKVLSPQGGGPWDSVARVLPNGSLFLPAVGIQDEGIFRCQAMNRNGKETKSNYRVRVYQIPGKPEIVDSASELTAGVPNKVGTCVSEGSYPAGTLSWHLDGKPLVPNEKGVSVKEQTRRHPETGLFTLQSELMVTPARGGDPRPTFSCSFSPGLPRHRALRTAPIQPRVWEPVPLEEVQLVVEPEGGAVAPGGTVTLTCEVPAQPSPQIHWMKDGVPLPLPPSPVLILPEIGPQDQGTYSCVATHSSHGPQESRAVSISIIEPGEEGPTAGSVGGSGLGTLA

IC50: 0.72 nM
B1: 158 RAGE-1 (antibody, V domains shown)
VH: QIQLVQSGPELKKPGETVKISCKASGYTFTDYSMHWVKQAPGKGLKWMGWINTETGEPTYADDFKGRFAFSLETSASTAYLLINNLKTEDTATYFCARDYLYYYAMDYWGQGTSVTVSS
VL: DVVLTQTPLSLPVNIGDQASISCKSTKSLLNSDGFTYLDWYLQKPGQSPQLLIYLVSNRFSGVPDRFSGSGSGTDFTLKISRVEAEDLGVYYCFQSNYLPLTFGGGTKVEIK
notes: Anti-RAGE monoclonal antibody (hybridoma; captured by anti-mouse Fc in Biacore); also called LP08105
